The values that follow come from FireProtDB (doi:10.1021/bi00005a026).

For the series the following is noted: Hordeum vulgare; pH 6.3; Thermal; Fluorescence; phosphate 10 mM; reversible: yes; whole UniProt chain shown.

B1: Subtilisin-chymotrypsin inhibitor-2A wild type, P01053 (protein)
chain: MSSVEKKPEGVNTGAGDRHNLKTEWPELVGKSVEEAKKVILQDKPEAQIIVLPVGTIVTMEYRIDRVRLFVDKLDNIAQVPRVG
As for B1, the Tm – broadly, the temperature at the midpoint of the melting transition – was found to be 46.6 °C and the “unfolding enthalpy (van 't Hoff)” value is 34.1 kcal/mol.
